# Source: patent US8507431B2, “Methods for accelerating wound healing by administration of a preadipocyte modulator or an adipocyte modulator” (HealOr Ltd., priority 2003, dated 2013)
# B1: visfatin (protein, UniProt P43490 1-491, looked up)
# Nicotinamide …: MNPAAEAEFNILLATDSYKVTHYKQYPPNTSKVYSYFECREKKTENSKLRKVKYEETVFYGLQYILNKYLKGKVVTKEKIQEAKDVYKEHFQDDVFNEKGWNYILEKYDGHLPIEIKAVPEGFVIPRGNVLFTVENTDPECYWLTNWIETILVQSWYPITVATNSREQKKILAKYLLETSGNLDGLEYKLHDFGYRGVSSQETAGIGASAHLVNFKGTDTVAGLALIKKYYGTKDPVPGYSVPAAEHSTITAWGKDHEKDAFEHIVTQFSSVPVSVVSDSYDIYNACEKIWGEDLRHLIVSRSTQAPLIIRPDSGNPLDTVLKVLEILGKKFPVTENSKGYKLLPPYLRVIQGDGVDINTLQEIVEGMKQKMWSIENIAFGSGGGLLQKLTRDLLNCSFKCSYVVTNGLGINVFKDPVADPNKRSKKGRLSLHRTPAGNFVTLEEGKGDLEEYGQDLLHTVFKNGKVTKSYSFDEIRKNAQLNIELEAAHH
# notes: insulin-mimetic hormone secreted from visceral adipose tissue
# B2: IL-4: adipokine hIL-4 (protein, UniProt P05112 25-153, looked up)
# Interleukin-4: HKCDITLQEIIKTLNSLTEQKTLCTELTVTDIFAASKNTTEKETFCRAATVLRQFYSHHEKDTRCLGATAQQFHRHKQLIRFLKRLDRNLWGLAGLNSCPVKEANQSTLENFLERLKTIMREKYSKCSS
# B3: adiponectin (protein, UniProt Q15848 19-244, looked up)
# Adiponectin: ETTTQGPGVLLPLPKGACTGWMAGIPGHPGHNGAPGRDGRDGTPGEKGEKGDPGLIGPKGDIGETGVPGAEGPRGFPGIQGRKGEPGEGAYVYRSAFSVGLETYVTIPNMPIRFTKIFYNQQNHYDGSTGKFHCNIPGLYYFAYHITVYMKDVKVSLFKKDKAMLFTYDQYQENNVDQASGSVLLHLEVGDQVWLQVYGEGERNGLYADNDNDSTFTGFLLYHDTN
# notes: adipokine
# Assays:
# primary keratinocytes [1] = assay: Keratinocytes migration (wound scratch) assay in vitro; type: cell-based, murine
# Protocol: (§1) Primary keratinocytes were isolated from newborn skin as described in reference 18. Keratinocytes were cultured in Eagle's Minimal Essential Medium (EMEM) containing 8% Chelex (Chelex-100, BioRad) treated fetal bovine serum. To maintain a proliferative basal cell phenotype, the final Ca^2+ concentration was adjusted to 0.05 mM. Experiments were performed five to seven days after plating.
# Primary mouse keratinocytes were untreated or treated with, PPARγ antagonist GW9662 (μM) or PPARγ agonist troglitazone (μM). Wound Scratch Assay was performed 24 hours following treatment, and representative fields were photographed immediately after the wounding (Day 0) and 48 hours later (Day 2). The average of wound closure represented as percentage in comparison to the initial width of the wound scratch (% of wound closure).
# The effect of inhibiting or enhancing the activity of peroxisome proliferators-activated receptor gamma (PPARγ) on keratinocytes migration was evaluated utilizing the in vitro migration assay. Thus, primary keratinocytes were isolated and plated on 5 ml non-coated dishes until confluence in low Ca^2+ medium, and an artificial crossover scratch was formed in each dish with a 200 μm tip. Cells were either non-treated (control) or treated daily with PPARγ modulators.
# In order to test the effect of different adipokines on keratinocyte migration to close the wound gap, an in vitro scratch assay was used. Thus, primary keratinocytes were isolated and plated on 5 ml non-coated dishes until confluence in low Ca^2+ medium, and an artificial crossover scratch was formed in each dish with a 200 μm tip. Cells were either non-treated (control) or treated daily with insulin (0.1 unit/ml), hIL-4 (2 ng/ml), hIL-6 (0.2 ng/ml), leptin (4 μg/ml) or apelin (0.02 μg/ml or 0.2 μg/ml).
# Primary keratinocytes/fibroblasts were isolated and plated on 5 ml non-coated dishes until confluence in low Ca^2+ medium, and an artificial cross-over scratch was formed in each dish with a 200 μm tip. […]
# [2] = system: Full thickness wounds on the back of C57BL mice; assay: Wound healing assay, full thickness incision wounds in mice; type: in vivo
# Protocol: […] […] Wound biopsies were sampled, processed and analyzed morphologically and/or histochemically and/or immunohistochemically for various wound healing parameters, i.e., wound contraction, adipocytes migration and differentiation, epidermal migration, and epidermal closure.
# The wound area was measured and compared to untreated control wounds; and wound contraction was calculated as the percent reduction of the wound area.
# Wound biopsies were fixed in 4% paraformaldehyde then dehydrated in increasing concentrations of ethanol (50-100%). The dehydrated preparations were immersed first in xylene, then paraffin and xylene 1:1 solution, then in pure melted paraffin (60° C.). The paraffin blocks were then sectioned by a microtome and the sections were mounted on Super Frost^+™ slides.
# Paraffin embedded wound-section slides were incubated at 60° C. for 60 minutes and were de-parafinated by washing the slides twice with toluene (100%) for 10 minutes, then rehydrated in decreasing concentration of ethanol (100-50%) for 5 minutes each. The slides were stained with hematoxylin (ready to use solution) for 10 minutes, rinsed with water, stained with eosin (0.5% in DDW) for 5 minutes, and then washed with 70% ethanol by 2 quick immersions. Thereafter, the slides were dehydrated by washing once with 95% ethanol for 2 minutes, twice with 100% ethanol for 5 minutes, and twice with xylene (100%) for 10 minutes, then mounted with entellan (MERCK Darmstadt Germany).
# Paraffin embedded wound-section slides were de-parafinated as described for H&E staining above and incubated in blocking solution (5% BSA and 0.5% Tween 20™ in PBS) for 1 hour. […]
# The effect of inhibiting or enhancing the activity of PPARγ using PPARγ antogonist and agonist, respectively, on wound healing was also evaluated in vivo. […]
# The effect of adipsin (complementing Factor D, which is secreted from adipocytes) on wound healing was evaluated in vivo. […] The mice were sacrificed 6 days after wounding and the wounds were then analyzed. […]
# primary keratinocytes [3] = assay: Western blot analysis for PCNA expression (proliferation marker); type: cell-based, murine; conditions: visfatin 0.01 μg/ml, 24 hrs post treatment
# Protocol: as §1
# (§2) Primary keratinocytes were isolated, plated on 100 mm tissue dishes and maintained for 5 days in medium with low Ca^+ (0.05 mM) until 80% confluence. Then, cells were either non-treated (control) or treated with insulin (0.1 unit/ml, 1 μM) or visfatin (0.01 μg/ml or 0.1 μg/ml). 24 hrs post treatment cells were lyzed and analyzed for PCNA expression by western blot analysis.
# primary keratinocytes [4] = assay: Differentiation assay for Keratin 1 (western blot); type: cell-based, murine; conditions: visfatin 0.01 or 0.1 μg/ml, 24 hrs; vs non treated and insulin treated cells
# Protocol: as §1
# as §2, with “low Ca^2+” for “low Ca^+”, “were lysed” for “were lyzed”, “for K1 (Keartin 1)” for “for PCNA”
# primary keratinocytes [5] = assay: Differentiation assay for filaggrin (western blot); type: cell-based, murine; conditions: visfatin 0.01 and 0.1 μg/ml, 24 hrs
# Protocol: as §1
# Primary keratinocytes were isolated, plated on 100 mm tissue dishes and maintained for 5 days in medium with low Ca^2+ (0.05 mM) until reaching 80% confluence. Then, cells were either non-treated (control) or treated with visfatin (0.01 μg/ml or 0.1 μg/ml). Terminal differentiation was induced by adding Ca^2+ to the medium 6 hrs post treatment. 24 hrs post treatment cells were lysed and analyzed for filaggrin expression by western blot analysis.
# primary skin fibroblasts = assay: Fibroblasts scratch migration assay in vitro; type: cell-based; conditions: 24 hrs; for fibroblasts migration to close the wound gap vs non-treated and insulin: hIL-8 5 ng/ml, hIL-1β 0.2 ng/ml, hIL-4 2 ng/ml, apelin 0.2 μg/ml, adiponectin 1 μg/ml
# Protocol: Primary skin fibroblasts were isolated and plated on 5 ml non-coated dishes until confluence in low Ca^2+ medium, and an artificial crossover scratch was formed in each dish with a 200 μm tip. Cells were either non-treated (control) or treated with insulin (0.1 unit/ml), hIL-8 (5 ng/ml), hIL-1β (0.2 ng/ml), hIL-4 (2 ng/ml), apelin (0.2 μg/ml) or adiponectin (1 μg/ml); and collected after 24 hrs.
# Primary keratinocytes/fibroblasts were isolated and plated on 5 ml non-coated dishes until confluence in low Ca^2+ medium, and an artificial cross-over scratch was formed in each dish with a 200 μm tip. Then, cells were either non-treated or treated with visfatin (0.1 μg/ml or 0.0.1 μg/ml) or insulin (0.1 unit/ml) for up to 48 hrs.
# primary keratinocytes [6] = assay: Thymidine incorporation assay; type: cell-based, murine
# Protocol: as §1
# Primary keratinocytes were isolated, plated on 6 well tissue dishes and maintained for 5 days in medium with low Ca^2+ (0.05 mM) until 80% confluence. Then, cells were either non-treated (control) or treated with visfatin (0.1 μg/ml or 0.01 μg/ml) for 24 hrs. 6 hrs post treatment Ca^2+ mM was added to the medium, and the next day, cells were pulsed with [^3H]thymidine (1 uCi/ml) for 1 hour. After incubation, cells were washed three times with PBS and 5% trichloroacetic acid (TCA) was added into each well for 1 hour. The solution was then removed and cells were stabilized in 1M NaOH. The labeled thymidine incorporated into the cells was counted in a ^3H-window of a Tricarb liquid scintillation counter.
# [7] = visfatin 0.01 μg/ml daily for 7 days
Molecule,"migration of keratinocytes relative to controls (primary keratinocytes [1]; visfatin 0.1 μg/ml or 0.01 μg/ml, up to 48 hrs)","migration of keratinocytes (primary keratinocytes [1]; visfatin 0.1 μg/ml, 48 hrs)","adipocytes at the wound site [2, 7]","inflammation in the wound [2, 7]",PCNA expression levels in keratinocytes (primary keratinocytes [3]),keratinocyte differentiation (Keratin 1 expression) (primary keratinocytes [4]),filaggrin levels (terminal differentiation) (primary keratinocytes [5]),"fibroblast migration and proliferation (primary skin fibroblasts; visfatin 0.01 μg/ml, insulin 0.1 unit/ml as comparison)","proliferation rate under conditions promoting cell differentiation (primary keratinocytes [6]; Ca2+ 0.12 mM addition to the medium, visfatin 0.1 or 0.01 μg/ml)","thymidine incorporation (proliferation) (primary keratinocytes [6]; visfatin 0.01 μg/ml vs 0.1 μg/ml and controls, 24 hrs)","keratinocyte migration in scratch assay vs control and insulin (primary keratinocytes [1]; treated daily, 24 and 48 hrs, hIL-4 2 ng/ml, apelin 0.2 μg/ml)",fibroblasts migration to close the wound gap vs non-treated and insulin (primary skin fibroblasts),"healing parameters (epidermal closure, dermal contraction, matrix remodeling) ([2]; adiponectin 1 μg/ml daily for 7 days, 20 mm incision, H&E and Masson Trichrome)"
B1,does not halt or interfere with migration of keratinocytes,induced migration in keratinocytes though not significantly,attracts adipocytes to the wound site,reduces inflammation,significantly decreased,promotes keratinocyte differentiation primarily terminal differentiation,marked elevation in filaggrin levels,promotes fibroblast migration and proliferation to the extent of insulin treatment,inhibited even further,lower thymidine incorporation than the higher dose (0.1 μg/ml) and controls,,,
B2,,,,,,,,,,,keratinocyte migration was highly significant,did not induce any additional effect compared to controls,
B3,,,,,,,,,,,,promoted fibroblasts migration to completely close the wound gap,better healing parameters
